Data taken from US20240067745A1 (ABMAX BIOTECHNOLOGY, published 2024).
Where “and” joins values, the source holds several entries; their conditions need not be identical. Identical values can stand only once.

How the values were obtained:
IL-4 = target: T1, IL-4 (UniProt P05112 25-153); assay: indirect ELISA, factor coated at 1 µg/ml
T1 construct: Purchased coating factor
T1 sequence (looked up): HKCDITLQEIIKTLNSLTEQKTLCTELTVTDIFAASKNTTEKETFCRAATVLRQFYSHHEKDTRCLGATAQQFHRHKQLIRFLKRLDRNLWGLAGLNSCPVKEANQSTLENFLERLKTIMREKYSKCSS
Protocol: (§1) The specific experimental process is as follows: C5, C3, C3b, rIFN γ (recombinant human interferon γ), IL-1α, IL-1β, IL-2, IL-4 and IL-8 (purchased from Inshore Technology, respectively) were mixed with PBS. Co., Ltd.), dilute the antigen to 1 μg/ml; add 100 μl/well of the diluted antigen to a 96-well plate, cover, overnight at 4° C.; shake off the liquid in the well, wash three times with PBS, 200 μl/well, manually Pat dry; block with 200 μl/well of 5% milk, block for 1 h, tap the edge of the ELISA plate every 15 minutes to promote the reaction; shake off the liquid in the well, wash once with PBS, 200 μl/well, pat dry by hand; add different light chains Heavy chain combination antibody, diluted in 5% milk, 100 μl/well, incubated for 1 h, tap the edge of the ELISA plate every 15 min to promote the reaction; shake off the liquid in the well, wash three times with PBS, 200 μl/well, pat dry by hand; add Goat anti-human secondary antibody, diluted in 5% milk, 100 μl/well; incubate for 1 h, tap the edge of the ELISA plate every 15 min to promote the reaction; preheat the TMB substrate at room temperature, and turn on the microplate reader to preheat; wash 5 times with PBS, 250 μl/well, the first three times 5 min, the last two times 10 min, pat dry by hand; add 50 μl/well of TMB substrate AB to each well, and develop color at room temperature for 20 min; use a scanner to scan and record the pictures, add 50 μl/well of stop solution, use enzyme The standard instrument reads OD450 and archives.

C3 = target: T2, C3 (UniProt P01024 23-1663, limits assumed); assay: indirect ELISA, factor coated at 1 µg/ml
T2 construct: Purchased coating factor
Protocol: as §1

IL-1β = target: T3, IL-1β (UniProt P01584 117-269); assay: indirect ELISA, factor coated at 1 µg/ml
T3 construct: Purchased coating factor
Protocol: as §1

IL-1α = target: T4, IL-1α (UniProt P01583 113-271); assay: indirect ELISA, factor coated at 1 µg/ml
T4 construct: Purchased coating factor
T4 sequence (looked up): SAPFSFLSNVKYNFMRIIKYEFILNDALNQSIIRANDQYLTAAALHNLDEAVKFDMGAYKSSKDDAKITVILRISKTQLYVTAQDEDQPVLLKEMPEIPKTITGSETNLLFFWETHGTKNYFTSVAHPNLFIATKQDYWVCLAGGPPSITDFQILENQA
Protocol: as §1

[1] = target: T5, rIFN γ (recombinant human interferon γ) (human, UniProt P01579 24-166, limits assumed); assay: indirect ELISA, factor coated at 1 µg/ml
T5 construct: Purchased coating factor
T5 sequence (looked up): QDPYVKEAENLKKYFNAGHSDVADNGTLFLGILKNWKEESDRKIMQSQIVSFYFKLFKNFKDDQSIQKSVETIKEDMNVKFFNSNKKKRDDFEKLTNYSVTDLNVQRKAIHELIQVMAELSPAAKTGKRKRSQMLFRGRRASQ
Protocol: as §1

IL-2 = target: T6, IL-2 (UniProt P60568 21-153); assay: indirect ELISA, factor coated at 1 µg/ml
T6 construct: Purchased coating factor
Protocol: as §1

IL-8 = target: T7, IL-8 (UniProt P10145 28-99, limits assumed); assay: indirect ELISA, factor coated at 1 µg/ml
T7 construct: Purchased coating factor
T7 sequence (looked up): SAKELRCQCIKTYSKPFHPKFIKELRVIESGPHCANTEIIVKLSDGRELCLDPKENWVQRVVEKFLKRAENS
Protocol: as §1

complement protein C5 = target: T8, complement protein C5 (human, UniProt P01031 19-1676, limits assumed); assay: indirect ELISA, C5 coated at 0.3 µg/ml
T8 construct: Purchased antigen coated on the ELISA plate; Natural C5 is processed into beta and alpha chains from one precursor; also called human C5
Protocol: The experimental method is as follows: Dilute the antigen with C5 (purchased from Nearshore Technology Co., Ltd.) to 0.3 μg/ml with PBS; add 100 μl/well of the diluted antigen to a 96-well plate, cover, overnight at 4° C.; shake off The liquid in the well was washed three times with PBS, 200 μl/well, and patted dry; blocked with 5% milk-PBS 200 μl/well for 1 hour, and tapped every 15 minutes; the liquid in the well was shaken off, washed once with PBS, 200 μl/well, and patted dry; Add purified antibody (0-10 μg/ml) in a gradient, see Table 4 for antibody name, 5% milk-PBS dilution, 100 μl/well, incubate for 1 h, tap every 15 min; shake off the liquid in the well, wash three times with PBS, 200 μl/well, pat dry; add secondary antibody, diluted in 5% milk-PBS, 100 μl/well, incubate for 1 h, tap every 15 min; preheat TMB substrate at room temperature, and turn on the microplate reader to preheat; wash 5 times with PBS, 250μl/well, the first three times 5 min, the last two times 10 min, pat dry; add 50 μl/well of TMB substrate AB each, and develop color at room temperature for 20 min; use a scanner to scan and record the picture, add 50 μl/well of stop solution, use enzyme labeling The meter reads OD450.

T8 sequence (P01031 19-1676 limits assumed): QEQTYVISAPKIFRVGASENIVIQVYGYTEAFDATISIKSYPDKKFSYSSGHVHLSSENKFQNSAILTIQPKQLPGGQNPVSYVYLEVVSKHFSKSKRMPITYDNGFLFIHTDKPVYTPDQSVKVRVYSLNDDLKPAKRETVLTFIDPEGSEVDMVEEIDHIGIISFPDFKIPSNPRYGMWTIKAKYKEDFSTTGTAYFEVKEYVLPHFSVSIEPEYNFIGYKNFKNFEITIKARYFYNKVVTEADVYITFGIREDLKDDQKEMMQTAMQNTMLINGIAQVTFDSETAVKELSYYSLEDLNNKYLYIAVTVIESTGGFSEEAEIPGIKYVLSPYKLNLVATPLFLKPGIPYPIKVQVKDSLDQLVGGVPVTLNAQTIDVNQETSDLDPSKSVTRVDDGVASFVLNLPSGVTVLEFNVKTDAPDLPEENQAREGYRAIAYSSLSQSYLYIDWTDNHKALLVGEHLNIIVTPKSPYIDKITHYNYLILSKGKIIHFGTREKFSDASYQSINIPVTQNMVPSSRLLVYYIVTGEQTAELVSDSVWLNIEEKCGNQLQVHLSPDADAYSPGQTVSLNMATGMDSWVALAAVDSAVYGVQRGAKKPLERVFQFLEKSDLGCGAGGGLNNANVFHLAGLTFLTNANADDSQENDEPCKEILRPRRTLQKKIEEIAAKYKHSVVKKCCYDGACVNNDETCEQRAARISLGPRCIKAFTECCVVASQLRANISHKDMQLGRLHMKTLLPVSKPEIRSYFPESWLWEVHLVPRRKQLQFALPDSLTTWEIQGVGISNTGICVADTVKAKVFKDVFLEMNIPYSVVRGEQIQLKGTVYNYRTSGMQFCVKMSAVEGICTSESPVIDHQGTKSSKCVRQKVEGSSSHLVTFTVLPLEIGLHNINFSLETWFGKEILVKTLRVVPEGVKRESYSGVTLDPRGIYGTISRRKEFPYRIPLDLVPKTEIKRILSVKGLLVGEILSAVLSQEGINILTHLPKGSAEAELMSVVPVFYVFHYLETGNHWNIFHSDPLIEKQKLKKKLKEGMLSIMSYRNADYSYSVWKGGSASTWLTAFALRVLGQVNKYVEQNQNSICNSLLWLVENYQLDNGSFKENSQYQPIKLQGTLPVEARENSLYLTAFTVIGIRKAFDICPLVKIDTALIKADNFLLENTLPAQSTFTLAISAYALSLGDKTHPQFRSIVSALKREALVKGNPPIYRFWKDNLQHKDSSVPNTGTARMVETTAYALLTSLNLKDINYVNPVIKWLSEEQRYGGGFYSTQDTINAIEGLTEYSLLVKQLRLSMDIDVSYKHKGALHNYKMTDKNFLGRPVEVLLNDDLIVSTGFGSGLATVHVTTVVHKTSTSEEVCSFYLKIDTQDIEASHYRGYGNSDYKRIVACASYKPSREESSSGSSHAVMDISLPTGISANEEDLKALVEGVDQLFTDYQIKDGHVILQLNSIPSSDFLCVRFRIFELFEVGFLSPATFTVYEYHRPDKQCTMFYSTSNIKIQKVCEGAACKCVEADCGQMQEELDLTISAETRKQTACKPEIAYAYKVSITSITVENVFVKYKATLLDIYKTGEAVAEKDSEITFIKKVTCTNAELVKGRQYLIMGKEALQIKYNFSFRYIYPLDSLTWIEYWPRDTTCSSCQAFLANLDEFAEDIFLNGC
T2 sequence (P01024 23-1663 limits assumed): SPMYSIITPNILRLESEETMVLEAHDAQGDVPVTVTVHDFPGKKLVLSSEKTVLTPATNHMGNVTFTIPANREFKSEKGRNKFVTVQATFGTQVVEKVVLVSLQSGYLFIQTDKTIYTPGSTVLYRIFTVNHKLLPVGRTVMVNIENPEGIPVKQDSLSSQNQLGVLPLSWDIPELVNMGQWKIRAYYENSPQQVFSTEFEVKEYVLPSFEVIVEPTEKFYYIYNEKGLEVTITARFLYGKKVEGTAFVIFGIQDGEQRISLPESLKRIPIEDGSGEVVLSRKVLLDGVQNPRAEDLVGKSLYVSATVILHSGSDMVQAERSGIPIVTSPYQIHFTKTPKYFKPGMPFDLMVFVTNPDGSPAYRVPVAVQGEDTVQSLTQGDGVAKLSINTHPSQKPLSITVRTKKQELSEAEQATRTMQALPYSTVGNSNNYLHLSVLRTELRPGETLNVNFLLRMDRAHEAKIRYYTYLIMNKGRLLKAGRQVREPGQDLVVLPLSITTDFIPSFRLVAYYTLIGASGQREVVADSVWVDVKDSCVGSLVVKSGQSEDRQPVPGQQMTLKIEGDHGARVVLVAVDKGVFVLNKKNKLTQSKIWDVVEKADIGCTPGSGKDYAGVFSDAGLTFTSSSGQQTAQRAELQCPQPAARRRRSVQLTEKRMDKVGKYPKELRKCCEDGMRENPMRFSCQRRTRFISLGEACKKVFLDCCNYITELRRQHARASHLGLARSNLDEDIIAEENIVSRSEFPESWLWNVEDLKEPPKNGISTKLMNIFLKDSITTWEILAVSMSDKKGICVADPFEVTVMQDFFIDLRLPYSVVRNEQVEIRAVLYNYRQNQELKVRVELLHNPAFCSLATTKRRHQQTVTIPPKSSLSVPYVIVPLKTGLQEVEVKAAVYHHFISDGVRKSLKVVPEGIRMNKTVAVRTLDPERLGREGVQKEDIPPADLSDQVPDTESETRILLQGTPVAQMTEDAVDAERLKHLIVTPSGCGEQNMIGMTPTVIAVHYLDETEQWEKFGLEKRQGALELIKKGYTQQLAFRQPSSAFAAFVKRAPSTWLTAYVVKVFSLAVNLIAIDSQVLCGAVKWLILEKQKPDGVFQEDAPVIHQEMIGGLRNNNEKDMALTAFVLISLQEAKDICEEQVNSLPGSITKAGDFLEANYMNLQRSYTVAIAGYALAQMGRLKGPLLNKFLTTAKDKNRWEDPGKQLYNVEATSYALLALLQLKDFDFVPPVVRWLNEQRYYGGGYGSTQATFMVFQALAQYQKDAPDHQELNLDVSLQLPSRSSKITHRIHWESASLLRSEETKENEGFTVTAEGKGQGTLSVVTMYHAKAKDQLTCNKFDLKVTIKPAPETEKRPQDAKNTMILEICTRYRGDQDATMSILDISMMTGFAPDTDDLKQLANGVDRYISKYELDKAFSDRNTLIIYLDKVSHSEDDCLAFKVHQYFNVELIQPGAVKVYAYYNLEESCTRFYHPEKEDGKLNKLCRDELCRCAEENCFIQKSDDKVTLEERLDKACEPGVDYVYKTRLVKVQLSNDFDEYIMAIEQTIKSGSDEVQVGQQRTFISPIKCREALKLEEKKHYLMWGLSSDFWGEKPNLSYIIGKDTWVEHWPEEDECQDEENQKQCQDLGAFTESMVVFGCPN
T6 sequence (P60568 21-153 limits assumed): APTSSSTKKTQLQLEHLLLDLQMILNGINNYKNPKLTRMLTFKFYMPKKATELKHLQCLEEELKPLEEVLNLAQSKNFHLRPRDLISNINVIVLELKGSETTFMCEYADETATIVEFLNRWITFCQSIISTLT

B1: Improved Eculizumab monoclonal antibody H1L0 (antibody, human IgG1, kappa, V domains shown)
VH: QVQLVQSGGGVVQPGASVKVSCKASGYIFSNYWIQWVRQAPGQGLEWMGEILPGSGSTEYTENFKDRVTMTRDTSTSTVYMELSSLRSEDTAVYYCARYFFGSSPNWYFDVWGQGTLVTVSS
VL: DIQMTQSPSSLSASVGDRVTITCGASENIYGALNWYQQKPGKAPKLLIYGATNLADGVPSRFSGSGSGTDFTLTISSLQPEDFATYYCQNVLNTPLTFGQGTKVEIKR
notes: also called Improved H1L0; H1L0 (Improved)
B1: no binding (IL-4); no binding (C3); no binding (IL-1β). B1: no binding (IL-1α); no binding [1]; no binding (IL-2). For the same binder, the binding result (IL-8) was “no binding” and the EC50 (complement protein C5) was 0.00382 µg/mL and 0.0255 nM.

B2: Improved Eculizumab monoclonal antibody H3L0 (antibody, human IgG1, kappa, V domains shown)
VH: QVQLVQSGGGVVQPGASVKVSCKASGYIFSNYWIQWVRQAPGQGLEWMGEILPGSGSTEYTENFKDRVTLTTDSSTTTAYMELKSLQFDDTAVYYCARYFFGSSPNWYFDVWGQGTLVTVSS
VL: DIQMTQSPSSLSASVGDRVTITCGASENIYGALNWYQQKPGKAPKLLIYGATNLADGVPSRFSGSGSGTDFTLTISSLQPEDFATYYCQNVLNTPLTFGQGTKVEIKR
notes: also called Improved H3L0; H3L0 (Improved)
B2: no binding (IL-4); no binding (C3); no binding (IL-1β). B2: no binding (IL-1α); no binding [1]; no binding (IL-2). B2: no binding (IL-8).
